From the supplement of paper PMC10567573
± gives the standard deviation.

Assay: protein stability index of a GFP-peptide fusion (GPS, HEK-293T) (PSI 1-6); higher = more stable
[1] = treatment: DMSO, c terminus: a fixed tail appended
[2] = treatment: MLN4924 1 uM, 8 h, c terminus: a fixed tail appended
[3] = treatment: DMSO, c terminus: native
[4] = treatment: MLN4924 1 uM, 8 h, c terminus: native
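Further: 24-mer peptide tiles fused after GFP, lentivirally expressed, FACS-sorted into six equal bins by GFP/DsRed ratio, decoded by Illumina sequencing, PSI is the read-weighted mean bin number.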

Sequence	protein stability index [1]	protein stability index [2]	protein stability index [3]	protein stability index [4]
SPESGLEVRDRMLLKITIPNAFIG [DVL3]	2.3 ± 0.15	2.24 ± 0.34		
GSRYDARRGVSDWDLRMKLHDRGA [DNAAF3]	3.61 ± 0.23	3.66 ± 0.42		
EPGYIDSEIGTSDQIVPEYQEDSD [TRIB1]	5.69 ± 0.29	5.62 ± 0.19		
LQHTQELFPQWHLPIKIAAIIASL [STEAP1]	2.16 ± 0.35	2.1 ± 0.24		
FQEPDSPLPPARSPTEPGPERRRS [WEE1]	5.32 ± 0.35	5.31 ± 0.06		
QVANSAFVERVRKRGFEVVYMTEP [HSP90AB1]	2.49 ± 0.4	2.64 ± 0.24		
RTSLQYGIMCLKRLNYDRKELEKR [PPFIA4]	2.88 ± 0.45	2.83 ± 0.29		
RWFRSVDWEAVPQRKLKPPIVPKI [PRKX]	2.33 ± 0.26	2.44 ± 0.29		
AILMKAYQRFRQKSKASFLLLASG [PTGFR]	3.41 ± 0.86	2.83 ± 0.41		
SSEASQLEDAAGGDSASEEKSGSA [FBXO34]	5.61 ± 0.17	5.55 ± 0.29		
PKDLDPSLCTHLIYAFAGMTNHQL [CHIT1]	2.75 ± 0.44	2.46 ± 0.6		
MAPDPVAAETAAQGPTPRYFTWDE [FADS1]	4.7 ± 0.17	4.83 ± 0.27		
RVQKTSKELEDMNQKLFDLRGKFK [TNNI2]	3.94 ± 0.25	4.03 ± 0.3		
NFLIGRQGNKKEHVIHIIDFGLAK [CSNK1G1]	2.45 ± 0.66	1.89 ± 0.39		
ENWVCLSCYQVYCGRYINGHMLQH [HDAC6]	2.33 ± 0.76	2.54 ± 0.46		
SLGVPGSVGGVPGGTGSGDGNKIF [ZBTB22]	4.38 ± 0.26	4.3 ± 0.22		
DVARQLGKNNEFSRLVAGEYLSFF [PSD2]	2.26 ± 0.16	2.27 ± 0.44		
VIDGRNVTVTDVDIVFSKIKGKSC [TPPP]	2.6 ± 0.3	2.75 ± 0.41		
ERAVKRMRHLSTGTMTGLAIQYAL [MATN2]	2.39 ± 0.44	2.22 ± 0.32		
LAPVPTHSTVSELSRSPVATATSC [DUSP5]	4.24 ± 0.3	4.17 ± 0.15		
RRCRRCVCALCPVLGAHRGHPVGL [TRIM14]	2.54 ± 0.33	2.59 ± 0.38		
LQSCQAEIIELRRTVNALEIELQA [KRT34]	2.15 ± 0.45	2.11 ± 0.29		

Sequence	protein stability index [1]	protein stability index [2]	protein stability index [3]	protein stability index [4]
SALERLETKLHLLRQEMVNLRATD [LURAP1L]	2.73 ± 0.22	2.79 ± 0.58		
ARQELLGDRPRWQRLLGEDKFQWL [ANKRD9]	2.66 ± 0.46	2.98 ± 0.31		
RQRLQDISSLPLPQSLKNYLQYQ [SPSB4]			3.65 ± 0.074	3.65 ± 0.31
GGTSWTAYSLNKIHAYNLGTNAWE [KLHDC10]	2.12 ± 0.34	2.08 ± 0.3		
PITRKAAQLYTLWVTFQVLLYTSL [DHCR7]	3.07 ± 0.22	2.56 ± 0.51		
AQSRLEDPGADSEKSTVVEGGEVR [DLX1]	5.42 ± 0.28	5.45 ± 0.37		
VKESGERKVTDSISKSLELCNEIS [DLC1]	4.52 ± 0.11	4.82 ± 0.21		
ELEMIGFIENNVSKLSLLLNDISR [TRIP13]	2.2 ± 0.31	2.63 ± 0.41		
TRDYAPPSRGHAYRDYGHSRRDES [RBMY1A1]	4.54 ± 0.4	4.61 ± 0.42		
KSLDNMPNDEHWKALSRKSTSFRV [FBXO33]	3.4 ± 0.11	3.56 ± 0.21		
FVSAGAAAGVAAAFGAPIGGTLFS [CLCN6]	2.8 ± 0.48	2.46 ± 0.21		
LQLKQELAMLNAVTEDLRLKDWEH [SCARA5]	3.36 ± 0.046	3.34 ± 0.24		
SSSSSSSSSSSASSSASSSFSEEG [NFE2L1]	5.43 ± 0.33	5.38 ± 0.23		
KQIVSAVAHCHQSAIVLGDLKLRK [TRIB1]	2.77 ± 0.18	2.72 ± 0.27		
NKPGCEHECVNMEESYYCRCHRGY [MATN2]	4.3 ± 0.72	4.24 ± 0.22		
SDLLSEFKKHDADKVGLITLSDWA [PPEF2]	3.35 ± 0.47	3.44 ± 0.27		
MHPGRTTGKGPSTHTQIDQQPPRL [M1AP]	4.45 ± 0.1	4.511 ± 0.026		
NIPERASGPEGNLNQIVTEPDANF [FAM104B]	5.35 ± 0.15	5.23 ± 0.47		
QLEQVIESQKANQCAVLIYTSGTT [ACSBG2]	2.52 ± 0.32	2.51 ± 0.25		
VDSFQIILDSLLFFYDCSNNPISE [TENT5C]	3.03 ± 0.14	3.14 ± 0.41		
SSAIEVIMLRSNESFTMDDMSWTC [VDR]	2.6 ± 0.53	2.29 ± 0.38		
HRPSLNSVSLQINCQSVAQMNLLQ [DLC1]	2.4 ± 0.4	2.52 ± 0.32		

Sequence	protein stability index [1]	protein stability index [2]	protein stability index [3]	protein stability index [4]
KPLLGSAVLGLLLVLAAVVAWCYY [MYORG]	2.11 ± 0.4	2.25 ± 0.24		
QGCPGAKKHEFLTSVLDALSTDMV [SMOC2]	2.68 ± 0.26	3.07 ± 0.27		
LEGKTFYSKKDRPLCKSHAFSHV [PDLIM7]			3.36 ± 0.44	3.83 ± 0.75
VMRTKSSEKAANDDHSVRVAREDV [CPXM2]	5.08 ± 0.54	5.16 ± 0.35		
SHAAPGPSPDSWVPRPGTPQSPPS [FCHO1]	5.12 ± 0.47	5.05 ± 0.62		
VCVIAIGVVQALIVGYAFHFPHLL [TMEM175]	3.11 ± 0.62	3.09 ± 0.4		
IFALYSSLKFKSRVPQTWSKRLYG [PLD5]		2.83 ± 1.7		
WDKEPWFWHDTLTEQLWRIFAGVH [TLE6]	2.61 ± 0.82	2.22 ± 0.57		
MMVRQMKEDAKGKSEEELAECFRI [TNNC2]		4.3 ± 0.52		
TRRSSYEDSSLPSINALLQAEVLS [HNF4A]	3.13 ± 0.22	3.15 ± 0.31		
NYTSRVWEYSSSIQNSDNDLPVVQ [TRIM29]	3.88 ± 0.26	4.02 ± 0.32		
DVPDLQSVCSCTCYRSQDYGGRSV [KCNK9]	2.5 ± 0.36	2.81 ± 0.67		
KHYRFTHAEIIAWIRICRPGSIIG [CDC14A]	2.55 ± 0.15	2.83 ± 0.67		
SRHCPQLPPPCAALWCSGHLNGHA [ADAMTS4]	2.48 ± 0.3	2.48 ± 0.21		
VTKVTAVDADAGHNAWLSYSLLPQ [PCDHGC5]	2.41 ± 0.39	2.29 ± 0.21		
GGYLQRTTYDRRSSQERKFMEERE [RSPH3]	4.82 ± 0.21	4.76 ± 0.17		
SLCTHLIYAFAGMTNHQLSTTEWN [CHIT1]	3.43 ± 0.33	3.27 ± 0.38		
EGCELPDLPSSLLLPEDMALRNLP [SMG5]	4.4 ± 0.1	4.49 ± 0.15		
AIAMYFLPPSPRFLVMKGQEGAAS [SLC2A12]	2.17 ± 0.53	1.97 ± 0.31		
SLHDGSDGLDGISVGSYLDTLADD [LURAP1L]	5 ± 0.17	4.93 ± 0.25		
SPSYGRSRSRSRSRSRSRSRSNSR [SRSF1]	5.39 ± 0.47	5.43 ± 0.26		
